Consider three molecules from patent US20220135654A1 (GOVERNMENT OF THE UNITED STATES OF AMERICA AS REPRESENTED …, published 2022).

Broadly, the Kd is the constant that tells how readily two partners part at equilibrium. As usually defined, the koff is a measure of how fast the partners let go of each other. As a reminder, the kon is the rate constant with which the complex forms.

Test [1] concerns the target SARS-CoV-2 receptor-binding domain (SARS-CoV-2, UniProt P0DTC2 319-541). The test is described as follows: direct-binding MagPlex assay, biotinylated sdAb on RBD-coated microspheres.
In test [2] the target is SARS-CoV-2 nucleocapsid protein (recombinant) (SARS-CoV-2, UniProt P0DTC9 1-419). The test can be described thus: SPR (ProteOn XPR36), N immobilised on chip, sdAb in flow, 25 C.

B1: sdAb clone A9 (VHH)
VHH: EVQLQASGGGLVQAGESLRLSCVVSGGAFRIMDMGWFRQVPGKQREVVGVISSGGYTNYADSVKGRFTISRDNAKRTVYLHMNSLKPEDTAVYYCNIIPKSDQGAVNTWGKGTLVSVSS
As to B1, the binding result in test [1] is given as “no binding”.

B2: sdAb clone E10 (VHH)
VHH: DVQLQASGGGLVQAGGSLRLSCAASARTFYTMGWFRQVLGKDREFVGAIRWGVYATTRYADSVKGRFSISRDDATNTVALQMNSLKPEDTAVYYCAARAGPLGFELSATSSAEYDYWGQGTQVTVSS
For the molecule B2, the binding result in test [1] was “no binding”. In test [2], the Kd was found to be 14 nM, the koff came out at 0.00095 s⁻¹ and the kon worked out at 69000 M⁻¹ s⁻¹.

B3: sdAb clone B6 (VHH)
VHH: EVQLQASGGGLVQAGDSLRLSCVAVSGRTISTFAMGWFRQAPGKEREFVATINWSGSSARYADPVEGRFTISRDDAKNTVYLEMSSLKPGDSAVYYCASGRYLGGITSYSQGDFAPWGQGTQVTVSS
notes: also called Bt-B6
On to B3, for which the binding result in test [1] is “no binding”. Also, in test [2], the dissociation constant (Kd) was found to be 1.6 nM, the koff was found to be 0.0003 s⁻¹ and the kon was determined as 190000 M⁻¹ s⁻¹.
